Experimental data taken from paper PMC10062032 (ACS Nano, 2023).

Molecular target: T1, Methylococcus capsulatus (Bath) soluble methane monooxygenase hydroxylase (sMMOH), alpha subunit (Methylococcus capsulatus (Bath), UniProt P22869 1-527)
T1 sequence (looked up): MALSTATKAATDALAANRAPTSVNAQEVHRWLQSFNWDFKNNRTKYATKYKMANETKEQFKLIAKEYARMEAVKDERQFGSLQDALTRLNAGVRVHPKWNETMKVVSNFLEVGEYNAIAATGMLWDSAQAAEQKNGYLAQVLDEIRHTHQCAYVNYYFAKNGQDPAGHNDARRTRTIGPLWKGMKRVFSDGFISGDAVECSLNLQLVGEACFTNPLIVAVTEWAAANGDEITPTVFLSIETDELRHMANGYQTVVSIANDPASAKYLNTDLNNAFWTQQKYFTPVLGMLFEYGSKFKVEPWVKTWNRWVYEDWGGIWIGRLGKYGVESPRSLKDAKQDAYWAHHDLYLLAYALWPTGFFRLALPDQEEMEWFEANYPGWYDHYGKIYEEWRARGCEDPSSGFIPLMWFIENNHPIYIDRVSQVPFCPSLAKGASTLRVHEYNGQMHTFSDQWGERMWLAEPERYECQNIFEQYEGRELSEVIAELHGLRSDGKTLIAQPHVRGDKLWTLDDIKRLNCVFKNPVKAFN
Assay: cryo-EM structure

- binding result: binds
B1: Methylococcus capsulatus (Bath) soluble methane monooxygenase hydroxylase (sMMOH), beta subunit (natural protein, UniProt P18798 1-389, looked up)
chain: MSMLGERRRGLTDPEMAAVILKALPEAPLDGNNKMGYFVTPRWKRLTEYEALTVYAQPNADWIAGGLDWGDWTQKFHGGRPSWGNETTELRTVDWFKHRDPLRRWHAPYVKDKAEEWRYTDRFLQGYSADGQIRAMNPTWRDEFINRYWGAFLFNEYGLFNAHSQGAREALSDVTRVSLAFWGFDKIDIAQMIQLERGFLAKIVPGFDESTAVPKAEWTNGEVYKSARLAVEGLWQEVFDWNESAFSVHAVYDALFGQFVRREFFQRLAPRFGDNLTPFFINQAQTYFQIAKQGVQDLYYNCLGDDPEFSDYNRTVMRNWTGKWLEPTIAALRDFMGLFAKLPAGTTDKEEITASLYRVVDDWIEDYASRIDFKADRDQIVKAVLAGLK
